Assay results: patent US8388937B2, “Specific peptide binding to glypican-3” (Kyungpook National University Industry—Academic Cooperation …, priority 2009, dated 2013)
Where no end group is shown, it is not given here. The star is where a group is joined. FITC = O=C1OC2(c3ccc(O)cc3Oc3cc(O)ccc32)c2ccc(NC(=S)*)cc21

How the values were obtained:
Format in all cases: cell-based
[1] = system: renal cell lines in which GPC-3 protein was not expressed (HEK-293, Cos-7); assay: Overlay assay of FITC-labeled peptide on cells in which GPC-3 protein was not expressed
Procedure: (§1) The peptide synthesized in Example 8 was subjected to an overlay assay. First, the human hepatocellular carcinoma cells (HepG2, Huh-7) and the renal cell (HEK293) were cultured to about 1×10^5 in an 8-well chamber slide, followed by washing three times with PBS for three min. In order to prevent non-specific reactions, a reaction was performed in Opti-MEM supplemented with 1% BSA for 1 hour. Again, washing was performed three times with PBS for three min, and then cells were fixed with a fixative containing ethanol and acetone at 2:1 for 3 min. The cells were mounted in Mounting medium supplemented with DAPI. FIGS. 8 through 10 illustrate the results.

[2] = molecular target: T1, GPC-3 protein (Homo sapiens, UniProt P51654); assay: Overlay assay of FITC-labeled peptide on cell lines in which GPC-3 protein was expressed; set-up: the human hepatocellular carcinoma cell line HepG2 in which GPC-3 protein was expressed; endogenous in cells; host or cells: HepG2, Huh-7, SkMel28 (ATCC)
Procedure: as §1

[3] = molecular target: T1, GPC-3 protein; assay: Overlay assay on HepG2 in competition with equivalent peptide to which FITC was not bound; set-up: the human hepatocellular carcinoma cell line HepG2 in which GPC-3 protein was expressed; endogenous in cells; host or cells: HepG2; details: competition with unlabeled peptide for bonding to GPC-3 protein
Procedure: as §1
FIG. 9 illustrates image results obtained from reaction of a peptide (FITC-RLNVGGTYFLTTRQ) containing the amino acid sequence of SEQ ID No.1 to the human hepatocellular carcinoma cell line HepG2 in which GPC-3 protein was expressed with an equivalent peptide to which FITC were not bound. […] Because a peptide in which a fluorescent material was not labeled and a fluorescent material labeled peptide were competing for bonding to GPC-3 protein, a fluorescent material labeled peptide became less likely to bind to GPC-3.

T1 sequence (P51654 25-554): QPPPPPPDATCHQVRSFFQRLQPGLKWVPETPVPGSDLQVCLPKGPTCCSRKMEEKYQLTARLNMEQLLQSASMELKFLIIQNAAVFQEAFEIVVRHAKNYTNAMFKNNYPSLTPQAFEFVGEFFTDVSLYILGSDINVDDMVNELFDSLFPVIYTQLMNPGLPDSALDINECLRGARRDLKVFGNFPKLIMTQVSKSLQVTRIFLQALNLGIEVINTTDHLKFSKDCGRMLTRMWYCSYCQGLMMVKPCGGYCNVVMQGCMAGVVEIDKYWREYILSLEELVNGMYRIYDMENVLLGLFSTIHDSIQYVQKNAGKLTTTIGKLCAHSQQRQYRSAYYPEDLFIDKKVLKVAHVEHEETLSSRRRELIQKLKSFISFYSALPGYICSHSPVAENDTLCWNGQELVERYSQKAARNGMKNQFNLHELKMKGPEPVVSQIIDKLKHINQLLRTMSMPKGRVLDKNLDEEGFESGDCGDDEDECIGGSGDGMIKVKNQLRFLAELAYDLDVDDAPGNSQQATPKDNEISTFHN

fluorescence by FITC (overlay, FIG. 8) ([2]; cell lines in which GPC-3 protein was expressed: HepG2, SkMe128, HEK-293 with GPC-3)	fluorescence by FITC in presence of equivalent peptide to which FITC was not bound (FIG. 9) [3]	fluorescence by FITC (overlay, FIG. 7) ([2]; cell lines in which GPC-3 protein was expressed: HepG2, Huh-7, SkMe128, HEK-293 with GPC-3)	Substance	fluorescence by FITC (overlay, FIG. 8) ([1]; renal cell line in which GPC-3 protein was not expressed: Cos-7)	fluorescence by FITC (overlay, FIG. 7) ([1]; renal cell lines in which GPC-3 protein was not expressed: HEK-293, Cos-7)
fluorescence by FITC was observed			FITC-YFLTTRQ ({FITC}-YFLTTRQ)	fluorescence was not observed	
	fluorescence was not observed	fluorescence by FITC was observed	FITC-RLNVGGTYFLTTRQ ({FITC}-RLNVGGTYFLTTRQ)		fluorescence was not observed
